# Data as given in the supplement of paper PMC10567573.
# B1: OAS1 (parent)
# chain: LQLGEGVEFDVLPAFDALGQLTGG
# Variants of: B1
# Assay: protein stability index of a GFP-peptide fusion (GPS, HEK-293T) (PSI 1-6); higher = more stable
# Conditions: c terminus: a fixed tail appended
# 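Note: lentivirally expressed fusions sorted by FACS into six bins by GFP to DsRed ratio, PSI derived from sequencing read proportions per bin multiplied by bin number.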
row,Variant,protein stability index
1,LQLGEGVEFDVLHAFDALGQLTGG [P13H],2.21
2,LQLGEGVEFDVLGAFDALGQLTGG [P13G],1.31
3,LQLGENVEFDVLPAFDALGQLTGG [G6N],2.25
4,LQLGECVEFDVLPAFDALGQLTGG [G6C],1.83
5,LQLGEEVEFDVLPAFDALGQLTGG [G6E],2.38
6,LQLGEIVEFDVLPAFDALGQLTGG [G6I],1.28
7,LQLGEHVEFDVLPAFDALGQLTGG [G6H],2.8
8,LQLGEPVEFDVLPAFDALGQLTGG [G6P],2.94
9,LQLGEMVEFDVLPAFDALGQLTGG [G6M],2.01
10,LQLGEWVEFDVLPAFDALGQLTGG [G6W],1.74
11,LQLGEQVEFDVLPAFDALGQLTGG [G6Q],2.51
12,LQLGEKVEFDVLPAFDALGQLTGG [G6K],3
13,LQLGEAVEFDVLPAFDALGQLTGG [G6A],1.53
14,LQLGESVEFDVLPAFDALGQLTGG [G6S],2.39
15,LQLGEFVEFDVLPAFDALGQLTGG [G6F],1.63
16,LQLGEYVEFDVLPAFDALGQLTGG [G6Y],1.3
17,LQLGERVEFDVLPAFDALGQLTGG [G6R],2.33
18,LQLGEDVEFDVLPAFDALGQLTGG [G6D],1.88
19,LQLGETVEFDVLPAFDALGQLTGG [G6T],1.55
20,LQLQEGVEFDVLPAFDALGQLTGG [G4Q],2.75
21,LQLIEGVEFDVLPAFDALGQLTGG [G4I],1.88
22,LQLFEGVEFDVLPAFDALGQLTGG [G4F],1.17
23,LQLMEGVEFDVLPAFDALGQLTGG [G4M],2.36
24,LQLTEGVEFDVLPAFDALGQLTGG [G4T],2.28

row,Variant,protein stability index
1,LQLSEGVEFDVLPAFDALGQLTGG [G4S],1.4
2,LQLREGVEFDVLPAFDALGQLTGG [G4R],1.78
3,LQLNEGVEFDVLPAFDALGQLTGG [G4N],2.16
4,LQLKEGVEFDVLPAFDALGQLTGG [G4K],2.8
5,LQLPEGVEFDVLPAFDALGQLTGG [G4P],2.36
6,LQLWEGVEFDVLPAFDALGQLTGG [G4W],1.65
7,LQLHEGVEFDVLPAFDALGQLTGG [G4H],2.25
8,LQLEEGVEFDVLPAFDALGQLTGG [G4E],3.05
9,LQLVEGVEFDVLPAFDALGQLTGG [G4V],1.7
10,LQLCEGVEFDVLPAFDALGQLTGG [G4C],1.38
11,LQLYEGVEFDVLPAFDALGQLTGG [G4Y],1.08
12,LQLGEGVENDVLPAFDALGQLTGG [F9N],4.57
13,LQLGEGVEHDVLPAFDALGQLTGG [F9H],4.18
14,LQLGEGVEQDVLPAFDALGQLTGG [F9Q],3.84
15,LQLGEGVERDVLPAFDALGQLTGG [F9R],3.67
16,LQLGEGVEDDVLPAFDALGQLTGG [F9D],3.88
17,LQLGEGVEMDVLPAFDALGQLTGG [F9M],2.88
18,LQLGEGVEKDVLPAFDALGQLTGG [F9K],3.69
19,LQLGEGVECDVLPAFDALGQLTGG [F9C],2.37
20,LQLGEGVESDVLPAFDALGQLTGG [F9S],4.03
21,LQLGEGVEEDVLPAFDALGQLTGG [F9E],4.37
22,LQLGEGVEIDVLPAFDALGQLTGG [F9I],1.65
23,LQLGEGVEPDVLPAFDALGQLTGG [F9P],3.64
24,LQLGEGVEFDQLPAFDALGQLTGG [V11Q],3.62

row,Variant,protein stability index
1,LQLGEGVEFDPLPAFDALGQLTGG [V11P],2.3
2,LQLGEGVEFDKLPAFDALGQLTGG [V11K],2.72
3,LQLGEGVEFDALPAFDALGQLTGG [V11A],1.91
4,LQLGEGVEFDWLPAFDALGQLTGG [V11W],1.16
5,LQLGEGVEFDELPAFDALGQLTGG [V11E],2.95
6,LQLGEGVEFDFLPAFDALGQLTGG [V11F],1.59
7,LQLGEGVEFDCLPAFDALGQLTGG [V11C],2
8,LQLGEGVEFDILPAFDALGQLTGG [V11I],1.49
9,LQLGEGVEFDSLPAFDALGQLTGG [V11S],2.59
10,LQLGEGVEFDNLPAFDALGQLTGG [V11N],3.33
11,LQLGEGVEFDHLPAFDALGQLTGG [V11H],2.83
12,LQLGEGVEFDTLPAFDALGQLTGG [V11T],2.21
13,LQLGEGVEFDLLPAFDALGQLTGG [V11L],1.96
14,LQLGEGVEFDRLPAFDALGQLTGG [V11R],2.54
15,LQLGEGVEFDMLPAFDALGQLTGG [V11M],2.33
16,LQLGEGVEFDVLPADDALGQLTGG [F15D],3.12
17,LQLGEGVEFDVLPASDALGQLTGG [F15S],2.73
18,LQLGEGVEFDVLPAHDALGQLTGG [F15H],3.1
19,LQLGEGVEFDVLPAEDALGQLTGG [F15E],3.57
20,LQLGEGVEFDVLPACDALGQLTGG [F15C],1.86
21,LQLGEGVEFDVLPATDALGQLTGG [F15T],3.48
22,LQLGEGVEFDVLPAADALGQLTGG [F15A],2.92
23,LQLGEGVEFDVLPAKDALGQLTGG [F15K],4.1
24,LQLGEGVEFDVLPAMDALGQLTGG [F15M],1.96

row,Variant,protein stability index
1,LQLGEGVEFDVLPAGDALGQLTGG [F15G],3.56
2,LQLGEGVEFDVLPAIDALGQLTGG [F15I],2.27
3,LQLGEGVEFDVLPAWDALGQLTGG [F15W],1.22
4,LQLGEGVEFDVLPAVDALGQLTGG [F15V],1.65
5,LQLGEGVEFDVLPALDALGQLTGG [F15L],2.48
6,LQLGEGVEFDVLPAPDALGQLTGG [F15P],3.45
7,LQLGEGVEFDVLPAYDALGQLTGG [F15Y],1.47
8,LQLGEGVEFDVLPARDALGQLTGG [F15R],2.74
9,LQLGEGVEFDVLPSFDALGQLTGG [A14S],1.55
10,LQLGEGVEFDVLPPFDALGQLTGG [A14P],2.02
11,LQLGEGVEFDVLPQFDALGQLTGG [A14Q],2.46
12,LQLGEGVEFDVLPGFDALGQLTGG [A14G],1.88
13,LQLGEGVEFDVLPVFDALGQLTGG [A14V],1.19
14,LQLGEGVEFDVLPDFDALGQLTGG [A14D],1.67
15,LQLGEGVEFDVLPTFDALGQLTGG [A14T],2.34
16,LQLGEGVEFDVLPKFDALGQLTGG [A14K],1.61
17,LQLGEGVEFDVLPCFDALGQLTGG [A14C],1.37
18,LQLGEGVEFDVLPHFDALGQLTGG [A14H],1.58
19,LQLGEGVEFDVLPYFDALGQLTGG [A14Y],1.53
20,LQLGEGVEFDVLPNFDALGQLTGG [A14N],1.86
21,LQLGEGVEFDVLPRFDALGQLTGG [A14R],1.29
22,LQLGEGVEFDVLPIFDALGQLTGG [A14I],1.48
